Earlier results on 1 substance are cited in publication PMC12071589.

In general, pKd refers to −log10 of the Kd, conventionally taken in molar units.

pKd: −log10 of the molar value.

This series concerns the target TROP2 (Homo sapiens) (UniProt P09758).

Sequence of TROP2 (Homo sapiens) (P09758 27-274): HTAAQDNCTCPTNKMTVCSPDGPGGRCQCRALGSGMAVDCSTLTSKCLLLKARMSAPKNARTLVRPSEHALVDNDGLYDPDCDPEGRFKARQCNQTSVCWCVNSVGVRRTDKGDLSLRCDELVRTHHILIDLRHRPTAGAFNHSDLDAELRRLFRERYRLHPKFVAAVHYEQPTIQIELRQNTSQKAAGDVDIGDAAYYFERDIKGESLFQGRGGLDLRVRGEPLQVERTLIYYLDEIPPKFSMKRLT

With sacituzumab, the pKd is 9.59.
